Results from patent US7026443.
Read-outs that look alike come from different tables or passages of the source.

Key:
HLA-A*0201 (human) = assay: competition with 125I-labelled standard peptide for purified HLA-A*0201, gel filtration
HLA-A*1101 (human) = assay: competition with 125I-labelled standard peptide for purified HLA, gel filtration
HLA-A*0301 (human) [1] = assay: as above
HLA-A*0301 (human) [2] = target: HLA-A*0301 (human)
HLA-A*0301 (human) [3] = assay: competition with 125I-labelled standard peptide for purified HLA-A*0301, gel filtration

## FIHFIQGAVI (modifications not checked) [HPV18 E1 peptide … (position 497, 10 amino acids)]
HLA-A*0201 (human)
  binding affinity ratio (IC50 of the standard peptide / IC50 of the test peptide): 0.0057

## FIQGAVISFV (modifications not checked) [HPV18 E1 peptide … (position 500, 10 amino acids)]
HLA-A*0201 (human)
  binding affinity ratio (IC50 of the standard peptide / IC50 of the test peptide): 0.046

## GTGCNGWFYV (modifications not checked) [HPV18 E1 peptide … (position 11, 10 amino acids)]
HLA-A*0201 (human)
  binding affinity ratio (IC50 of the standard peptide / IC50 of the test peptide): 0.0006

## DLFVVYRDSI (modifications not checked) [HPV18 E6 51 …]
HLA-A*0201 (human)
  binding affinity ratio (IC50 of the standard peptide / IC50 of the test peptide): 0.0001

## DTLEKLTNT (modifications not checked) [HPV18 E6 88 …]
HLA-A*0201 (human)
  binding affinity ratio (IC50 of the standard peptide / IC50 of the test peptide): 0.0001

## ELNTSLQDI (modifications not checked) [HPV18 E6 20 …]
HLA-A*0201 (human)
  binding affinity ratio (IC50 of the standard peptide / IC50 of the test peptide): 0.0001

## ELRHYSDSV (modifications not checked) [HPV18 E6 peptide … (position 77)]
HLA-A*0201 (human)
  relative binding ratio (IC50 of standard peptide / IC50 of test peptide): 0.0003

## KLTNTGLYNL (modifications not checked)
HLA-A*0201 (human)
  relative binding ratio (IC50 of standard peptide / IC50 of test peptide): 0.0048

## KLTNTGLYNLL (modifications not checked)
HLA-A*0201 (human)
  relative binding ratio (IC50 of standard peptide / IC50 of test peptide): 0.0043

## NTSLQDIEIT (modifications not checked) [HPV18 E6 peptide … (position 22)]
HLA-A*0201 (human)
  relative binding ratio (IC50 of standard peptide / IC50 of test peptide): 0.0001

## PLNPAEKL (modifications not checked) [HPV18 E6 peptide PLNPAEKL (position 111)]
HLA-A*0201 (human)
  relative binding ratio (IC50 of standard peptide / IC50 of test peptide): 0.0001

## RLQRRRETQV (modifications not checked) [HPV18 E6 peptide … (position 149)]
HLA-A*0201 (human)
  relative binding ratio (IC50 of standard peptide / IC50 of test peptide): 0.0001

## SLQDIEITCV (modifications not checked) [HPV18 E6 peptide … (position 24)]
HLA-A*0201 (human)
  relative binding ratio (IC50 of standard peptide / IC50 of test peptide): 0.025

## SVYGDTLEKL (modifications not checked) [HPV18 E6 peptide … (position 84)]
HLA-A*0201 (human)
  relative binding ratio (IC50 of standard peptide / IC50 of test peptide): 0.0028

## TVLELTEV (modifications not checked) [HPV18 E6 peptide TVLELTEV (position 37)]
HLA-A*0201 (human)
  relative binding ratio (IC50 of standard peptide / IC50 of test peptide): 0.001

## CMCCKCEA (modifications not checked) [HPV18 E7 peptide CMCCKCEA (position 63)]
HLA-A*0201 (human)
  relative binding ratio (IC50 of standard peptide / IC50 of test peptide): 0.0005

## CMCCKCEARI (modifications not checked) [HPV18 E7 peptide … (position 63)]
HLA-A*0201 (human)
  relative binding ratio (IC50 of standard peptide / IC50 of test peptide): 0.002

## DSVYGDTLEK (modifications not checked) [HPV18 E6 peptide … (position 83, 10 amino acids)]
HLA-A*1101 (human)
  relative binding ratio (IC50 of standard peptide / IC50 of test peptide): 0.0051
HLA-A*0301 (human) [1]
  relative binding ratio (IC50 of standard peptide / IC50 of test peptide): 0.0005
HLA-A*0301 (human) [2]
  relative binding ratio (IC50 of standard peptide / IC50 of test peptide) (ratio to standard peptide): 0.0005

## EVFEFAFK (modifications not checked) [HPV18 E6 peptide EVFEFAFK (position 43, 8 amino acids)]
HLA-A*1101 (human)
  relative binding ratio (IC50 of standard peptide / IC50 of test peptide): 0.018
HLA-A*0301 (human) [1]
  relative binding ratio (IC50 of standard peptide / IC50 of test peptide): 0.0025
HLA-A*0301 (human) [2]
  relative binding ratio (IC50 of standard peptide / IC50 of test peptide) (ratio to standard peptide): 0.0025

## KLRHLNEKR (modifications not checked) [HPV18 E6 peptide … (position 117, 9 amino acids)]
HLA-A*0301 (human) [3]
  relative binding ratio (IC50 of standard peptide / IC50 of test peptide) (ratio to standard peptide): 0.025
HLA-A*1101 (human)
  relative binding ratio (IC50 of standard peptide / IC50 of test peptide): 0.0005
HLA-A*0301 (human) [1]
  relative binding ratio (IC50 of standard peptide / IC50 of test peptide): 0.025

## LIRCLRCQK (modifications not checked) [HPV18 E6 peptide … (position 102, 9 amino acids)]
HLA-A*1101 (human)
  relative binding ratio (IC50 of standard peptide / IC50 of test peptide): 0.0012
HLA-A*0301 (human) [1]
  relative binding ratio (IC50 of standard peptide / IC50 of test peptide): 0.019
HLA-A*0301 (human) [2]
  relative binding ratio (IC50 of standard peptide / IC50 of test peptide): 0.019

## LLIRCLRCQK (modifications not checked) [HPV18 E6 peptide … (position 101, 10 amino acids)]
HLA-A*1101 (human)
  relative binding ratio (IC50 of standard peptide / IC50 of test peptide): 0.12
HLA-A*0301 (human) [1]
  relative binding ratio (IC50 of standard peptide / IC50 of test peptide): 0.047
HLA-A*0301 (human) [2]
  relative binding ratio (IC50 of standard peptide / IC50 of test peptide): 0.047

## LTEVFEFAFK (modifications not checked) [HPV18 E6 peptide … (position 41, 10 amino acids)]
HLA-A*1101 (human)
  relative binding ratio (IC50 of standard peptide / IC50 of test peptide): 0.036
HLA-A*0301 (human) [1]
  relative binding ratio (IC50 of standard peptide / IC50 of test peptide): 0.0001
HLA-A*0301 (human) [2]
  relative binding ratio (IC50 of standard peptide / IC50 of test peptide): 0.0001

## NTGLYNLLIR (modifications not checked) [HPV18 E6 peptide … (position 95, 10 amino acids)]
HLA-A*1101 (human)
  relative binding ratio (IC50 of standard peptide / IC50 of test peptide): 0.0013
HLA-A*0301 (human) [1]
  relative binding ratio (IC50 of standard peptide / IC50 of test peptide): 0.0002
HLA-A*0301 (human) [2]
  relative binding ratio (IC50 of standard peptide / IC50 of test peptide): 0.0002

## PLNPAEKLR (modifications not checked) [HPV18 E6 peptide … (position 111, 9 amino acids)]
HLA-A*0301 (human) [3]
  relative binding ratio (IC50 of standard peptide / IC50 of test peptide): 0.0002
HLA-A*1101 (human)
  relative binding ratio (IC50 of standard peptide / IC50 of test peptide): 0.0005
HLA-A*0301 (human) [1]
  relative binding ratio (IC50 of standard peptide / IC50 of test peptide): 0.0002

## SIPHAACHK (modifications not checked) [HPV18 E6 peptide … (position 59, 9 amino acids)]
HLA-A*0301 (human) [3]
  relative binding ratio (IC50 of standard peptide / IC50 of test peptide): 0.017
HLA-A*1101 (human)
  relative binding ratio (IC50 of standard peptide / IC50 of test peptide): 0.12
HLA-A*0301 (human) [1]
  relative binding ratio (IC50 of standard peptide / IC50 of test peptide): 0.017

## SVYGDTLEK (modifications not checked) [HPV18 E6 peptide … (position 84, 9 amino acids)]
HLA-A*1101 (human)
  relative binding ratio (IC50 of standard peptide / IC50 of test peptide): 0.23
HLA-A*0301 (human) [1]
  relative binding ratio (IC50 of standard peptide / IC50 of test peptide): 0.08
HLA-A*0301 (human) [2]
  relative binding ratio (IC50 of standard peptide / IC50 of test peptide): 0.08
